Two molecules from EP1638605B1 (Raptor Pharmaceutical, Inc., dated 2014) can be followed below.

The target in experiment [1] is mLRP/LRPTmMegT mini-receptor (fourth ligand binding and transmembrane domains of LRP1 with the C-terminal cytoplasmic tail of megalin) on MDCK cells (UniProt Q07954). Nature of the experiment: cell-based or functional assay.
The target in experiment [2] is T1, recombinant human alpha-L-iduronidase (Aldurazyme) (human, UniProt P35475 27-653, limits assumed).
T1 construct: also called rhIDU; Recombinant human IDU
T1 sequence (looked up): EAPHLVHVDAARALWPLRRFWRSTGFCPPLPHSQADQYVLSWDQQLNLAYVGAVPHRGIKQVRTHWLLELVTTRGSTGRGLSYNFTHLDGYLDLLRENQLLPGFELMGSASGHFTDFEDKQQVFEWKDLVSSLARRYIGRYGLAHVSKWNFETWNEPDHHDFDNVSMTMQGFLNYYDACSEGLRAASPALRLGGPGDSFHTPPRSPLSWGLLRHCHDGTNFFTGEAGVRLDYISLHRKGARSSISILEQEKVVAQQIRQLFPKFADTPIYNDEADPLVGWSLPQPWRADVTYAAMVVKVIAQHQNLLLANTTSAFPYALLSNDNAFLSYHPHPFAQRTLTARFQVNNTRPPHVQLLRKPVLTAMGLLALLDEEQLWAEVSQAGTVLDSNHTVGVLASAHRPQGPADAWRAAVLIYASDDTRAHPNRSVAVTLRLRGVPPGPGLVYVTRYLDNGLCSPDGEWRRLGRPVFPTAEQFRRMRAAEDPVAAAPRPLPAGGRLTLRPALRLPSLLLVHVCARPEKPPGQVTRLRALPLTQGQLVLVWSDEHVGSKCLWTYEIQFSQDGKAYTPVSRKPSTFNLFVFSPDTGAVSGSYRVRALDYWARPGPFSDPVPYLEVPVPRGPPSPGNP
Nature of the experiment: ligand blot, sLRP2 (1 µg/well) on membrane, antibody detection.

Sequence of mLRP/LRPTmMegT mini-receptor (fourth ligand binding and transmembrane domains of LRP1 with the C-terminal cytoplasmic tail of megalin) on MDCK cells (Q07954 3293-4444): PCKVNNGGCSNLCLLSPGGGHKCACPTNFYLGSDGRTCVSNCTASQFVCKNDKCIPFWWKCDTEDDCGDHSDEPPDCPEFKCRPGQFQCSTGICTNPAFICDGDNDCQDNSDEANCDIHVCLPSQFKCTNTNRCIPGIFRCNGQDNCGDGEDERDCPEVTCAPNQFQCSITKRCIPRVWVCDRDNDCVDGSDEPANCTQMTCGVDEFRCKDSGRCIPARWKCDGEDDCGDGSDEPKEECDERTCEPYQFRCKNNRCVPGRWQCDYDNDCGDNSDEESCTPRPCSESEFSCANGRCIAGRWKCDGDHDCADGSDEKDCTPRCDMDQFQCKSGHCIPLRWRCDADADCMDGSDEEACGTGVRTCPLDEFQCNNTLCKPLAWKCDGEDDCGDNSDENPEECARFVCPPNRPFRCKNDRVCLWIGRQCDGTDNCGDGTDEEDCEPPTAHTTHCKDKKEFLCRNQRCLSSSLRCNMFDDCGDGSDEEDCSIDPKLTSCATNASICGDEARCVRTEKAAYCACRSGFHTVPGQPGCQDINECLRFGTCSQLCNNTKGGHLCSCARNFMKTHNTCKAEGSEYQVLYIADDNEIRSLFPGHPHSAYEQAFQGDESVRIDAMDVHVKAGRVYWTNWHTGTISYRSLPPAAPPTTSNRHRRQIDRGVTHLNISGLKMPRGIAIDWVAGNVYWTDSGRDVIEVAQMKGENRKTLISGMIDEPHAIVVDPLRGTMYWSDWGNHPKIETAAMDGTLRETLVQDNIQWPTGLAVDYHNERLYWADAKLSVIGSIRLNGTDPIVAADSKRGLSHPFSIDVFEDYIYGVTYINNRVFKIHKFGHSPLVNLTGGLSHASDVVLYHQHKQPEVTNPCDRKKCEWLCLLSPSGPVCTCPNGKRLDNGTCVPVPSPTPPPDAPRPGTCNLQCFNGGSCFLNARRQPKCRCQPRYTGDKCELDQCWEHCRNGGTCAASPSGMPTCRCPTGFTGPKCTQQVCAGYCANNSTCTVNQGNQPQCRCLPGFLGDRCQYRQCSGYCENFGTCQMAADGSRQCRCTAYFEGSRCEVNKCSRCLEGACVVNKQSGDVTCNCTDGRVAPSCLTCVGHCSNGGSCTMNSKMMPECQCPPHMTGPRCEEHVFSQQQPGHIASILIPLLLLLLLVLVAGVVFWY

“receptor-associated protein (RAP) (ligand)”: in experiment [1], the apical-to-basolateral permeability coefficient of 125I-RAP across MEGt-transfected MDCK monolayers with excess unlabeled RAP at 2 µg/ml was 6.3 ×10⁻⁶ cm/s; the apical-to-basolateral permeability coefficient of 125I-RAP across MEGt-transfected MDCK monolayers, 60 min was 18.1 ×10⁻⁶ cm/s; the ratio of apical-to-basolateral to basolateral-to-apical permeability coefficient of 125I-RAP in MEGt-transfected MDCK cells worked out at 460 fold.

B1: sLRP2, the entire second ligand-binding domain of human LRP1 (recombinant) (receptor, UniProt Q07954 806-1183, looked up)
chain: KCRVNNGGCSSLCLATPGSRQCACAEDQVLDADGVTCLANPSYVPPPQCQPGEFACANSRCIQERWKCDGDNDCLDNSDEAPALCHQHTCPSDRFKCENNRCIPNRWLCDGDNDCGNSEDESNATCSARTCPPNQFSCASGRCIPISWTCDLDDDCGDRSDESASCAYPTCFPLTQFTCNNGRCININWRCDNDNDCGDNSDEAGCSHSCSSTQFKCNSGRCIPEHWTCDGDNDCGDYSDETHANCTNQATRPPGGCHTDEFQCRLDGLCIPLRWRCDGDTDCMDSSDEKSCEGVTHVCDPSVKFGCKDSARCISKAWVCDGDNDCEDNSDEENCESLACRPPSHPCANNTSVCLPPDKLCDGNDDCGDGSDEGELCD
notes: also called immobilized LRP
As for B1, the binding result in experiment [2] is listed as “no binding”.
